Results as given in the DeepSol protein solubility set.

Test: soluble on expression in E. coli; label from the status in PepcDB or PDB records

Row | Sequence | soluble on expression in E. coli
1 | MCAKIALLLVLVGAASAAVLPDKFYGTFDLDHSENFDEYLTAKGYGWFTRKLVTFATFKKVFTKTSNKNLFDYSNLTSKKDVHYKNVQLGKAFQGEGLDSTKHEITFTLKDGHLFEHHKPLEGGDAKEETYEYLFDKEFLLVRMSFNGVEGRRFYKRLP | not soluble
2 | MNKRIVICADGTWNRPEKDLKVDFPTNVLRLARAISPIAADGKPQQVFYDWGVGSYYDEVIGGATGRGLHKNIMDGYRYIVQNYSPGDEIYLFGFSRGAYTVRCLCGLINNCGILKRPEARLIQQAFDHYKKSSAPFAPSGDKSVEFRHEHCHESREIKFVGVWDTVGAMGIPISFLGLFEDKDEFYDTKIGRNVRVARHALAIDEHRSDFEPTIWQLRDNMDMQQVWFAGAHSNVGGSYLPDKDGSLLSDNALAWMIAEAERFNLSLEPHLTAGLRPNPLATLHDSRRSFYRIKQPYLRPLDPDVAPVLLHRSVKVRWEQDPKYRPKNLQAYLEKFGWPQELIDKLAAALEHHHHHH | soluble
3 | GHHHHHHAIAENLYFQSSRNPEVLWAQRSDKVYLTVALPDAKDISVKCEPQGLFSFSALGAQGERFEFSLELYGKIMTEYRKNVGLRNIIFSIQKEERSWWTRLLKSEEKPAPYIKVDWNKWCDEDEEVNSETASDDESAFVNQDSESSDDDGLLYLPDLEKARNK | soluble
4 | MSLQIVFPTPNQVEMQTGNLILGKKVSMYAEDTTAFYLNLFREEVLSHTPIKWQKKESKADICWITDSSLPPEGYRIKIHPQQMVISASDKGGFTYAVQTLRQWVAGSAGSITFACASVTDYPRTQWRCFLLDSGRQFQKITTIRKYIDMASLLKMNYFHWHLTEGLGWRIEIKQYPHLTRTGGSVGKGEEQQGFYTQEEIRDIIEYARQRNITIVPEIDMPGHAEAALSAYPELGCFGLPVEIPQSGFTQNIFCAGKDGTLRFLKNVLDEVCALFPSPYIHLGGDEAPKGNWDQCPDCRKRITTEGLKDSHDLQLWFSAQMANYLKSKGRKAIFWGDVVYHDGYPLPDNTVIQWWNYRGHKDLALRNAVKHHYPVICSSNYYTYLNFPVTPWKGYTEARTFDLKDVYLNNPSDKAISEKNPLILGMSCALWTDDGVTERMIDRRLFPRILALSEQMWHEGEALDFDRFYRNILHRKAWFEEAGFEFGPALKEDVTKDYKWDEGHHHHHH | soluble
5 | HAYKNALYDDEVSQFSNNWPLYYPLTARKFIYKHDLVDENIASKNRVELTNIERSSLNYPLAPIQVQSKEKQPNVLFILVDAWRYSDATPEVMPNVSKFAEKTVNFTQHMSGGNSTQAGIFSLFYSLPATYWESFYASQRSPVFMDTLQAEGYRMGIFGSAPLTSPPLSRTVFKKVSDLTLKQTGETAVERDQQITDKFIEFQKQDSDKPYFGFLFYDAAHGTVFPEPEFAKFKPYWERVDHILLNNDFDASLYHNRYKNSLYYIDSLIDDVLKNVDLDNTIVVISSDHGEEFNDHKMNYWGHTGNYSDVQVHVPLYVYMPNRQPEQIDYRTTHFDVVPTMMNTLFDVQGTTSSYSVGHNLFDSSAPRDWYIAGSYYNYALVGKELMLVVNPGGHSQQLNRQLKVEKEQKVPVDIIRHSLDEMSRFYKKG | not soluble
6 | MLFKARKWILSGASAQKSKSMAHTMLVENGFILPTAKGFYSLLPLGQRVIDKLCRILDVEFQNSGALKIAMPIVGTQQLWEKTGRWEAMGPEMIRFHDRQQNHMCLQPTAEEMCTELIATLSPLKKSQFPLIVYQIGEKFRDEMNPRFGLMRGRQFLMKDMYSFSTDAETSQQTYAQIRQIYDRIFGEILQLDEDVIKVEADSGVHGGHISHEYHLKSSLEEDFVNFCENCKNHNKFEGPGPAKCEKCAENSSKTVQKIPSVEIAHTFHLGTKYSEALGAKFQGKPLDMCCFGIGVTRLLPAAIDLLSVSDKALRLPRAIAPFDAVIIVKKSLMSNVIVEMASSSASRYLKGGILLDDRVEMSAGKRIHDANRLGIPFILVIANETERSLATQKPVIEVFTTHAKSAEPMSQGSMSLDRFVTFVQSTLYGGGGAHDSGHLAHNQVLDQLGSHQH | not soluble
7 | MTTSLHRLEALAHPARVRIVRLLAELPDEETAKDPRCGTAYGVCFCHLKEKTGLSAPTVSHHLRILREAGLVEGVRVGRWTYYRLRPGALEAVARELLGLAQRARALEERSA | soluble
8 | MNADGWLADTRSSYDTVAVSYADQLRGALAGTPYLRAALELFAGMIHTAGGGPVADVGCGPGHVTAHLHGLGVDAFGIDLSPAMIDVARRDHPDLRFEVGSMTDLNLADASVTALLAFWSLIHVPDDAIPAVFGHFRRVVRPGGPLLLGFHIGDESRLKTEGYGGHPMKVHVHHRQPVQVTAWLRDAGFTVEAQWLLGLDGHIPGAVLFAHRQSLEHHHHHH | not soluble
9 | MGSDKIHHHHHHMHKHADFFSYLSDHFQHTYWVPGNHEWYNSDMADRSGMLHEKIKDNVSLVNNAAVEQDGVQLIFSTLWSQISPAFAFQISQGMSDFHVIKYKGKPFSVEQFNRQHEESVSFIQKALQQKYAATTVVVSHHIPTFQHYPQQYKGSVLSEAFATELYDLIEAASPDYWIYGHHHSNVPDFTIGNTQLLTNQLGYVKCGEHAGFDRGKCLFRRGGH | not soluble
10 | MAGWETHKKAQWLCQLRKGMSMLPDTLSEQFVLYLDVLDGGSFSAAARKHPLTPSAVARRMDALERAVGSTLLVRTTHAVRATPAGLAFADRARRIVTELRLARAEAVSLSTAPQGLIRIDAPVPFGRRHLAPAVADFLKANPGLDVQLRLIGSFIDLQGEHLGEVDLVLRAGPLPDSRLVATSLAPMVRVVCASPEYLREHGVPASPGELPEHAGIDWDNLSPPYAWRFQHDGKLQHLRPKRARLATNNAEAMVDAALAGLGIAHLPTWLCSEYLLRGELQALFCDDGLPAAEPTCIYALRLEREASSRTRLLLAFLRERFGFPPPWDQALQQRLGER | not soluble
11 | MNKTYDFKSITENFNLEGELKTSDSHVCGHINDTFIINCEGENGEEIKYVLQRVNSDIFKNPEQLMENIENVTSHIKNKIIEENGDPLRETLNIVKTKEGKNFYKCKEGNYWRIFNFIHDASTYQIVEKPEHLYTAGKALGKFQKQLSDFNVDMLYDTIPDFHNTEKRFEAFMEAVREDKKGRAKDVKEEIDFVINRAEDTKVLVNMIKENKLPLRVTHNDTKFNNIMIDDETGEGIAVIDLDTVMPGLSLYDFGDSIRSGATTALEDEVDLSKVNFDLNLYEHFTKGFLESAGDAFTKEEIEYLPFAAKLMTFECGMRFLMDYLNGDVYFKIHRENHNLDRARNQFKLVSDMEKEMDNMKKIVYSYILEHHHHHH | not soluble
12 | MTTNSSSNTVVVYHSGYGHTHRMAEAVAEGAEATLHAIDAEGNLSEDGWAALDAADAIIFGTPTYMGGPSWQFKKFADASSKPWFSAKWQDKVFGGFTNSASLNGDKLNTLQYLVLLAGQHGGLWVSLGIKPSNLKSSVRNDANRMGSYIAPMAQSDADAAPEEMSVGDLETARLYGARVANVARQHKSTERV | soluble
13 | QALQTLVEKISIVFFQKPFLHQATFNRRLKTTGGRYHLASHHLDFNPTVFLKYGQEELEKVIKHELCHYHLHLAGKGYQHKDKDFKELLAKTGGARYAPPLVERKKAVFHQYQCQSCGEVILRKRRIDTTRYVCGKCHGRLSWQ | not soluble
14 | MGEGTRGEAFKKIREGYKVHIFDESYVSYINKGKGWMKVGGGIKVNPKRKRFAVVGGITISKEGITFSYSTYKKPSLNSKDIILYLRKVIKDEKTVIVMDNARIHGNEVREFLEENGVEFVYLPPYSPDKSPAEGPWAVLKKRLYSKIYTDFETLMWDATRFLRSISKRVNDLTYSVKRCGEPLDVNTE | soluble
15 | DIHQEMDREELELEEVDLYRMNSQDKLGLTVCYRTDDEDDIGIYISEIDPNSIAAKDGRIREGDRIIQINGIEVQNREEAVALLTSEENKNFSLLIARPELQLDEGWMDDD | soluble
16 | MSLNYTTQMDAAKKGIITKEMQVVSEKEGINIETLMNLMAEGKIVIPANKNHKSISAEGVGQGLRTKINVNLGISKDCANIELELEKVKKAIDMNAESIMDLSNYGKTYDFRKRLVEVSTAMIGTVPMYDVVGFYDKELKDITVDEFFEVVEKHAKDGVDFVTIHAGLNRETIETFRRNKRLTNIVSRGGSLLFAWMELNNRENPFYEYFDRLLDICEKYDLTLSLGDACRPGSIADATDAVQIKELITLGELTKRAWERNVQVIIEGPGHMAMNEIEANVLLEKKLCHGAPFYVLGPIVTDIAPGYDHITSAIGGAMAASYGADFLCYVTPAEHLRLPNLEDVREGIVATKIAAHAADIAKGISGARDIDNKMSDARKRLDWDEMFSLAIDSEKAIRYRKESTPEHKDSCTMCGKMCSIRNMNKILEGKDINLLREGHHHHHH | soluble
17 | MRGSHHHHHHGSLQVTVRDAINQGMDEELERDEKVFLLGEEVAQYDGAYKVSRGLWKKYGDKRIIDTPISEMGFAGIAVGAAMAGLRPICEFMTFNFSMQAIDQVINSAAKTYYMSGGLQPVPIVFRGPNGASAGVAAQHSQCFAAWYGHCPGLKVVSPWNSEDAKGLIKSAIRDNNPVVVLENELMYGVPFEFPPEAQSKDFLIPIGKAKIERQGTHITVVSHSRPVGHCLEAAAVLSKEGVECEVINMRTIRPMDMETIEASVMKTNHLVTVEGGWPQFGVGAEICARIMEGPAFNFLDAPAVRVTGADVPMPYAKILEDNSIPQVKDIIFAIKKTLNI | soluble
18 | MGHHHHHHSHMDQRQRRILGQPLSIPTSQPKQKRTSMISFFSKVSWKLRFQKREPLKNVFFILAERARDPSAKKRHMAMRNLGTMAYEAPDKVRKYKKIVLDLLVYGLYDPVNLEVIHESMKTLTVVLGKIQGKGLGSFFIDIALQTRTLLDDENDSLRYSAFVLFGQLAAFAGRKWKKFFTSQVKQTRDSLLIHLQDRNPQVAKACKTTFQACSPYLKLKEEYSFQSEEDQRNTKLYQQLSHYHPEILQFFYANKIL | not soluble
19 | MGSDKIHHHHHHMKTLGERSKERRKIINLTQLQLSKKVGVSSVTISQWESGDTSPKGENLYKLAQALQCSPDWLMFGDSKNTKKPESNAEWAGGFDLWDNDSPLGEDEVEIPFYMDVELSAGEGIAEGVEYKGPKLRFAKSSLKRQGVNTDHAACVKVNGNSMEPVLPHGSTVGVDTSATEIVDGKMYAINHDGMMRVKMLYKLPGGGLRLRSYNTDEWPDEHINNEQLKNIKVIGKVFWYSVLL | not soluble
20 | DLPGVVIFLHGVNDPGASYESVETGLCQGVNERLDRPDLVPGRYGGKYKEAGNVPYEKRDSDQKVILDDPDTYLYRRDASDPKTHSLLIPFYWGHRAAPDQIKRDDAGDPFRMRNQFQDINGNRLDRHFAKAGGFIANATNNIPDVYGEGFRPNLKSIALETFKPDNALYFGHSPARHYCVLAAHRLAMLIREIRRVSPDETITIMGHSQGTIVTLLAQALLVDGGDRCADTFIMVDTPYCVLPGNTPKDQDTFSTLVGIVTAITNMPHTQPAMSELRDAKTYCGRSGSRWLPTQGIRKNKVGSMTVFPERDNRGKVYLYFCPDDTTVSLDDVQ | not soluble
21 | MAFYLPDWSCCGLWLFGRPRNRYSQLPEEPETFECPDRWRAEIDLGLPPGVQVGDLLRNEQTMGSLRQVYLLAVQANSITDHLKRFDAVRVPESCRGVVEAQVAKLEAVRSVIWNTMISLAVSGIEMDENGLKALLDKQAGDSLALMEMEKVATALKMDETGAWAQEISAVVSSVTAPSASAPFINSAFEPEVPTPVLAPPPVVRQPEHSGPTELALT | not soluble
22 | MRALLFTSVVLLALAFVEAKKQTITVKGTTICNKKRIQAEVTLWEKDTLDPDDKLASMQSNKEGEFSLTGSDDEITSISPYLIITHNCNVKKAGCKRVSEYLIPKEKIGGTYDMTYVTLDILSAKDKEKC | not soluble
